Measured values as given in patent US7879859B2, “Diagnosis and treatment of type 2 diabetes and other disorders” (Merck Sharp & Dohme Corp., priority 2005, dated 2011).
“And” between values parts separate entries of the source, which are not always exact repeats. Equal values may be shown once. d = 2'-deoxy (DNA); r = 2'-OH (RNA)

B1: si-SST3: pool of three pairs of siRNA oligos against rat sst3 (SEQ ID NO: 9-14) (nucleic acid)
chain 1: CCUUUCGGCUCUCUCAUGUTT
chain 2: GGGUUUGCUGGGCAAUUCATT
chain 3: CUGACGAACUCUUCAUGCUTT
chain 4: ACAUGAGAGAGCCGAAAGGTT
chain 5: UGAAUUGCCCAGCAAACCCTT
chain 6: AGCAUGAAGAGUUCGUCAGTT
modifications: sugars from the 5' end r19 d2, backbone not given here

What was measured:
isolated mouse islets = test: Glucose-stimulated insulin secretion (GSIS) in isolated mouse islets; format: cell-based; conditions: 10 nM Octreotide, FIG. 1
Procedure: Pancreatic islets of Langerhans were isolated from the pancreas of normal C57BL/6J mice (Jackson Laboratory, Maine) by collagenase digestion and discontinuous Ficoll gradient separation, a modification of the original method of Lacy and Kostianovsky (Lacy et al., Diabetes 16:35-39, 1967). The islets were cultured overnight in RPMI 1640 medium (11 mM glucose) before GSIS assay. To measure GSIS, islets were first preincubated for 30 minutes in the Krebs-Ringer bicarbonate (KRB) buffer with 2 mM glucose (in petri dishes). The KRB medium contains 143.5 mM Na^+, 5.8 mM K^+, 2.5 mM Ca^2+, 1.2 mM Mg^2+, 124.1 mM Cl^−, 1.2 mM PO4^3−, 1.2 mM […], 25 mM CO3^2−, 2 mg/ml bovine serum albumin (pH 7.4). The islets were then transferred to a 96-well plate (one islet/well) and incubated at 37° C. for 60 minutes in 200 μl of KRB buffer with 2 or 16 mM glucose, and other agents to be tested such as octreotide and a SST3 antagonist. (Zhou et al., J. Biol. Chem. 278:51316-51323, 2003.) Insulin was measured in aliquots of the incubation buffer by ELISA with a commercial kit (ALPCO Diagnostics, Windham, N.H.).

INS-1 (832/13) cells = test: GSIS assay after siRNA mediated gene knockdown; format: cell-based, rat; conditions: compared to random sequence siRNA, 48 hours after electroporation
Procedure: Three 21-mer siRNA oligos were designed against each candidate gene and used as a pool at the final concentration of 20 uM. The siRNA oligos were delivered to the cells by Nucleofector Device (Amaxa, Gaithersburg, Md.). The INS-1 (832/13) cells were trypsinized, centrifuged, and resuspended in 100 ul Nucleofector solution V (2.25×10^6 cells per reaction). Seven and a half microliters of pooled siRNA were then added to the cell suspension. The cells were electroporated with Amaxa Nucleofector Device program T21. After electroporation, the cells were transferred and split into 9 wells in 96-well plate with 200 ul of regular culture medium (RPMI 1640 with 10% FCS and 11 mM glucose).
GSIS assays were performed after 48 hours. Prior to the assay, cells were washed once with glucose-free Krebs-Ringer Bicarbonate (KRB) medium and cells were incubated with the KRB medium for another 2 hours. The medium were replaced with fresh KRB supplemented with 2, 8, and 16 mM glucose and the cells were incubated for another 2 hours. Supernatants were taken out at the end of incubation for insulin measurement by Ultrasensitive Rat Insulin ELISA kit (ALPCO, Salem, N.H.).
GSIS assays were performed 48 hours after electroporation. The ratios of insulin concentration measured between 8 mM and 2 mM (G8/G2) and 16 mM and 2 mM (G16/G2) glucose treatments are functional readouts for GSIS. […]

sst3 mRNA = test: sst3 knockdown by Taqman real-time PCR; format: cell-based, rat; conditions: 48 hours after siRNA treatment; INS-1 832/13 cells
Procedure: The degree of gene knockdown by the siRNA oligos was quantified by Taqman real-time PCR also at 48 hours after electroporation. The method consistently obtained >70% knockdown of the target genes mRNA. We used PDE3b (phosphodiesterase 3B) and GCK (glucokinase) as two positive controls. As shown in Example 5, Table 6 (infra), compared to control-shocked INS-1 cells (using random sequence siRNA oligos), knocking down PDE3b increased GSIS by 1.5 to 3 fold, consistent with its role in hydrolyzing cAMP, a key positive mediator of GSIS.
The degree of sst3 knockdown was also examined 48 hours after siRNA treatment using Taqman real-time PCR. The rat sst3 specific probes were designed using Primer Express Software (Applied Biosystem) based on SEQ ID NO: 7 (Forward Primer: […] (SEQ ID NO: 15); Reverse Primer: […] (SEQ ID NO: 16); Probe: […] (SEQ ID NO: 17)). We observed about 55-75% reduction of sst3 mRNA in siRNA-treated cells.

| Molecule | Effect on GSIS (isolated mouse islets) | Normalized fold of stimulation of GSIS, G8/G2 (INS-1 (832/13) cells; insulin ratio 8 mM/2 mM glucose) | Normalized fold of stimulation of GSIS, G16/G2 (INS-1 (832/13) cells; insulin ratio 16 mM/2 mM glucose) | Reduction of sst3 mRNA (sst3 mRNA) |
| --- | --- | --- | --- | --- |
| C[C@@H](O)[C@@H]1NC(=O)[C@H](CCCCN)NC(=O)[C@@H](Cc2c[nH]c3ccccc23)NC(=O)[C@H](Cc2ccccc2)NC(=O)[C@@H](NC(=O)[C@H](N)Cc2ccccc2)CSSC[C@@H](C(=O)N[C@H](CO)[C@@H](C)O)NC1=O [Octreotide] | significantly suppressed |  |  |  |
| B1 |  | 2.9 and 3 and 2.8 | 4.4 and 2.9 and 2.7 and 4.3 | 55-75% |
